Source: patent publication US20210292396A1 (INTERNATIONAL AIDS VACCINE INITIATIVE, published 2021)

Experiments:
Assay in all cases: cell-based or functional assay
[1] = biological target: HIV Env of isolate 3301.v1.c24 (HIV)
[2] = biological target: HIV Env of isolate TRO.11 (HIV)
[3] = biological target: HIV Env of isolate 6952.v1.c20 (HIV)
HIV Env of isolate 263-8 = HIV Env of isolate 263-8 (HIV)
[4] = biological target: HIV Env of isolate ZM247v1(Rev-) (HIV)
[5] = biological target: HIV Env of isolate T251-18 (HIV)
[6] = biological target: HIV Env of isolate R2184.c04 (HIV)
[7] = biological target: HIV Env of isolate QH0692.42 (HIV)
[8] = biological target: HIV Env of isolate CAAN5342.A2 (HIV)
[9] = biological target: HIV Env of isolate SC422661.8 (HIV)
HIV Env of isolate CNE5 = HIV Env of isolate CNE5 (HIV)
[10] = biological target: HIV Env of isolate BJOX010000.06.2 (HIV)
[11] = biological target: HIV Env of isolate 6041.v3.c23 (HIV)
[12] = biological target: HIV Env of isolate 62357_14_D3_4589 (HIV)
[13] = biological target: HIV Env of isolate BJOX028000.10.3 (HIV)
[14] = biological target: HIV Env of isolate 1394C9G1(Rev-) (HIV)
[15] = biological target: HIV Env of isolate CAP210.2.00.E8 (HIV)
[16] = biological target: HIV Env of isolate Ce703010054_2A2 (HIV)
[17] = biological target: HIV Env of isolate T278-50 (HIV)
[18] = biological target: HIV Env of isolate 928-28 (HIV)
[19] = biological target: HIV Env of isolate 6811.v7.c18 (HIV)
[20] = biological target: HIV Env of isolate WITO4160.33 (HIV)
[21] = biological target: HIV Env of isolate TRO.11 (HIV); remark: listed apart in the source
[22] = biological target: HIV Env of isolate 1054_07_TC4_1499 (HIV)
[23] = biological target: HIV Env of isolate 0815.v3.c3 (HIV)
[24] = biological target: HIV Env of isolate ZM247v1(Rev-) (HIV); remark: listed apart in the source
[25] = biological target: HIV Env of isolate P1981_C5_3 (HIV)
[26] = biological target: HIV Env of isolate Du156.12 (HIV)
HIV Env of isolate CNE30 = HIV Env of isolate CNE30 (HIV)
[27] = biological target: HIV Env of isolate 1012_11_TC21_3257 (HIV)
[28] = biological target: HIV Env of isolate 6535.3 (HIV)
[29] = biological target: HIV Env of isolate 0260.v5.c36 (HIV)
[30] = biological target: HIV Env of isolate ZM135M.PL10a (HIV)
[31] = biological target: HIV Env of isolate 6480.v4.c25 (HIV)
[32] = biological target: HIV Env of isolate CAP45.2.00.G3 (HIV)
[33] = biological target: HIV Env of isolate RHPA4259.7 (HIV)
HIV Env of isolate CNE17 = HIV Env of isolate CNE17 (HIV)
[34] = biological target: HIV Env of isolate TRJO4551.58 (HIV)
[35] = biological target: HIV Env of isolate 62357_14_D3_4589 (HIV); remark: listed apart in the source
[36] = biological target: HIV Env of isolate Q23.17 (HIV)
[37] = biological target: HIV Env of isolate 1056_10_TA11_1826 (HIV)
[38] = biological target: HIV Env of isolate 191084_B7-19 (HIV)
[39] = biological target: HIV Env of isolate CAP210.2.00.E8 (HIV); remark: listed apart in the source
[40] = biological target: HIV Env of isolate BJOX009000.02.4 (HIV)
[41] = biological target: HIV Env of isolate 246F_C1G (HIV)

B1: ePGT121.15.H1.L1 (antibody, V domains shown)
VH: QMQLQESGPGLVKPGETLSLTCSVSGASISSSYWSWLRETPGKGLEWIGYTHHSGDTNYAPSLKSRVHLGLHPSKNQVSLSLTSVTAADTAVYYCARTLHGRRIYGVVAFNEWFTYFYWEVWGNGTQVTVSS
VL: SDISVAPGETVRISCGGESIGSRAVQWYQHRAGQAPKLIIYNNQDRPPGIPERFSGSPDIDFGTTATLTITNVEAGDEATYYCHIWDSRRPTNWVFGGGTTLTVL
With B1 the “neutralization IC50” value [1] was 2.9 ng/mL, the “neutralization IC50” value [2] was 0.1 ng/mL and the “neutralization IC50” value [3] was 0.9 ng/mL. The “neutralization IC50” value (HIV Env of isolate 263-8) was 4.4 ng/mL, the “neutralization IC50” value [4] was 0.3 ng/mL and the “neutralization IC50” value [5] was 5.5 ng/mL. For the same binder, the “neutralization IC50” value [6] was over 50000 ng/mL, the “neutralization IC50” value [7] was 0.8 ng/mL and the “neutralization IC50” value [8] was 0.2 ng/mL. For the same binder, the “neutralization IC50” value [9] was 0.5 ng/mL, the “neutralization IC50” value (HIV Env of isolate CNE5) was 15800 ng/mL and the “neutralization IC50” value [10] was over 50000 ng/mL. For the same binder, the “neutralization IC50” value [11] was 12400 ng/mL, the “neutralization IC50” value [12] was 4 ng/mL and the “neutralization IC50” value [13] was 2.1 ng/mL. The “neutralization IC50” value [14] was 0.4 ng/mL, the “neutralization IC50” value [15] was 5.2 ng/mL and the “neutralization IC50” value [16] was over 50000 ng/mL. The “neutralization IC50” value [17] was 12.4 ng/mL, the “neutralization IC50” value [18] was 17.8 ng/mL and the “neutralization IC50” value [19] was 1.2 ng/mL. The “neutralization IC50” value [20] was 1.1 ng/mL, the “neutralization (Table 6 value)” value [21] was 0.00156 and the “neutralization (Table 6 value)” value [22] was 0.00167. The “neutralization (Table 6 value)” value [23] was 0.00167, the “neutralization (Table 6 value)” value [24] was 0.00158 and the “neutralization (Table 6 value)” value [25] was 0.00069. For the same binder, the “neutralization (Table 6 value)” value [26] was 0.00124, the “neutralization (Table 6 value)” value (HIV Env of isolate CNE30) was 0.00299 and the “neutralization (Table 6 value)” value [27] was 0.00262. The “neutralization (Table 6 value)” value [28] was 0.00121, the “neutralization (Table 6 value)” value [29] was 0.00247 and the “neutralization (Table 6 value)” value [30] was 0.11. For the same binder, the “neutralization (Table 6 value)” value [31] was 0.000305, the “neutralization (Table 6 value)” value [32] was 3.06 and the “neutralization (Table 6 value)” value [33] was 0.00233. For the same binder, the “neutralization (Table 6 value)” value (HIV Env of isolate CNE17) was 0.0106, the “neutralization (Table 6 value)” value [34] was 0.00359 and the “neutralization (Table 6 value)” value [35] was 0.00982. For the same binder, the “neutralization (Table 6 value)” value [36] was 0.00126, the “neutralization (Table 6 value)” value [37] was 0.00391 and the “neutralization (Table 6 value)” value [38] was 0.00279. For the same binder, the “neutralization (Table 6 value)” value [39] was 0.0229, the “neutralization (Table 6 value)” value [40] was 0.0255 and the “neutralization (Table 6 value)” value [41] was 0.00428.
